Results reported in patent US6808930B1, “Therapeutic agents” (priority 1997, dated 2004).

Columns and labels:
[1] = system: L1210, A549 and HRTEC nuclei; assay: DNA fragmentation in isolated nuclei; assay type: cell-based
Experimental: Nuclei were purified from L1210, A549 and HRTEC cells and incubated with low concentrations of MAL (0.2 and 0.4 mg/ml). The formation of HMW and oligonucleosome length DNA fragments was examined.
A549, L1210 and HRTEC nuclei were isolated from homogenised cells. Pellet 1 from the homogenisation was washed twice in nuclei buffer for 20 min at 100×g and suspended in nuclei buffer for experiments. Rat liver nuclei was isolated.
A549, L1210 or HRTEC nuclei in suspension were placed in individual wells in a 24-well plate ([…]), mixed with MAL, α-lactalbumin, lactoferrin or BSA (100 μl in nucleus buffer), incubated at 37° C. for 1 hour (L1210,) or 2 hours (A549 and HRTEC), harvested by aspiration, analysed for DNA fragmentation as described above.

A549 cells [2] = assay: Cell viability by trypan blue exclusion; assay type: cell-based, human
Experimental: (§1) Remaining cells were analysed for DNA fragmentation.

HRTEC cells [3] = assay: Cell viability by trypan blue exclusion; assay type: cell-based, human
Experimental: as §1

A549 cells [4] = assay: Cell surface binding of 125I-labelled protein, cell associated radioactivity; design: species or system human; conditions: 30 min exposure to 2×10^6 cpm of 125I-labelled protein
Experimental: (§2) Cell surface binding of MAL was also quantitated as the cell associated radioactivity during the first 30 min after addition of ^125I-labelled MAL to the cells (FIG. 2B). […]

HRTEC cells [5] = assay: as above; design: species or system human; conditions: 30 min exposure to 2×10^6 cpm of 125I-labelled protein
Experimental: as §2

L1210 cells = assay: Subcellular fractionation of cells exposed to 125I-labelled protein; assay type: cell-based, murine
Experimental: The intracellular distribution of MAL was further analysed in cells exposed to ^125I-labelled MAL with ^[…] α-lactalbumin and IgG as controls (FIG. 4). Subcellular fractions were prepared after mechanic disruption of the cells and the amount of radiolabelled MAL in each fraction was determined in relation to the total cell-associated radioactivity measured prior to disruption of the cells. Fraction P1 contained mostly cell nuclei, P2 contained plasma-Golgi-, ER-membranes and mitochondria, P3 contained small vesicles and the supernatant. Fraction S contained the cytosolic proteins. The purity of the fractions was determined by quantitation of specific markers (DNA, alkaline phosphatase, RNA and catalase).
Specifically, cellular subfractionation was performed as described (J. Graham., Isolation of subcellular organelles and membranes., p161-1019. In D. Rickwood ed., Centrifugation, a practical approach, 2nd ed. IRL Press, Washington D.C.). L1210, A549 or HRTEC cells in suspension (3×10^6 cells/ml, 100 μla were incubated with 1×10^6 cpr of ^125I-labelled MAL, ALA or IgG for various times at 37° C. The cells were washed three times with ice-cold PBS and the supernatants were discarded. The cells were suspended in 500 μl of homogenisation buffer (10 mM Tris-HCl, pH 7.8, 5 mM MgCl2 and 2 mM CaCl2 for L1210 cells and 0.15M NaCl, 2 mM EDTA, pH 7.5 for A549 cells), and homogenised by 50 strokes in a Dounce homogenizer (Thomas, Philadelphia, USA) with pestle size 415. Sucrose was added to a final concentration of […] and the homogenate was centrifuged at 100×g for 25 min at RT. The first pellet contained nuclei, large mitochondria and large sheets of plasma membrane. The remaining supernatant was further centrifuged at 12 000×g for 30 min at 4° C. resulting in a second pellet containing mitochondria endoplasmic reticulum, plasma membrane and cytoplasmic organelles. The supernatant was finally centrifuged at 150,000×g for 2 h at 4° C. resulting in a pellet containing small vesicles, endoplasmic reticulum and a supernatant containing cytosolic proteins.

A549 cells [6] = assay: Nuclear uptake of biotinylated protein, confocal microscopy; assay type: cell-based, human
Experimental: To detect intracellular protein, the cells were fixed at various times after addition of 0.3 mg/ml of biotinylated MAL for 5 min in phosphate-buffered paraformaldehyde (4%) (B. Sander et al., Immunol. Rev. (1991) 119: 65-92) at room temperature, washed in PBS, and permeabilized with 0.1% saponin in PBS. FITC conjugated streptavidin (diluted 1:100 in 0.1% saponin) was added and the cells were incubated for 30 min at room temperature. The cells were washed twice in PBS-saponin and once in PBS, mounted on a glass slide and analysed in a Bio-Rad 1024 laser scanning confocal equipment (Bio Rad Laboratories, Hemel-Hempstead, UK) attached to a Nikon Diaphot inverted microscope.

A549 cells [7] = assay: DNA fragmentation by gel electrophoresis and FIGE; assay type: cell-based, human
Experimental: as §1

HRTEC cells [8] = assay: DNA fragmentation by gel electrophoresis and FIGE; assay type: cell-based, human; conditions: 4 mg/ml for 24 h
Experimental: as §1

[9] = isolated nuclei from the three cell types, 0.2 and 0.4 mg/ml

B1: MAL: protein complex from human milk casein containing oligomeric forms of α-lactalbumin; the apoptosis-inducing fraction (protein, UniProt P00709 20-142, looked up)
Alpha-lactalbumin: KQFTKCELSQLLKDIDGYGGIALPELICTMFHTSGYDTQAIVENNESTEYGLFQISNKLWCKSSQVPQSRNICDISCDKFLDDDITDDIMCAKKILDIKGIDYWLAHKALCTEKLEQWLCEKL
modifications: oligomeric form from milk casein
notes: protein complex from human milk casein containing oligomeric forms of α-lactalbumin; the apoptosis-inducing fraction
[1]; isolated nuclei
  induction of DNA fragmentation in isolated nuclei: could induce DNA fragmentation
[1]; [9]
  time after which formation of HMW DNA fragments was enhanced: one
  time after which formation of oligonucleosome length fragments was enhanced: 2 h
A549 cells [2]
  sensitivity to MAL-induced apoptosis: intermediately sensitive
HRTEC cells [3]; HRTEC cells, 24 h incubation with up to 4 mg/ml
  cell viability: remained fully viable
HRTEC cells [3]; non-transformed cultures (HRTEC), within the tested concentration range
  sensitivity to MAL-induced apoptosis: resistant
A549 cells [4]
  cell surface binding, cell associated radioactivity: 20 000 cpm
HRTEC cells [5]
  cell surface binding, cell associated radioactivity: 18 000 cpm
L1210 cells; 6 h, 125I-labelled
  share of total cell associated radioactivity in nuclear fraction (P1): about 78%
L1210 cells; 6 h, 125I-labelled, denominator in brackets
  total cell associated radioactivity: 44000
L1210 cells; 6 h, 125I-labelled, numerator in brackets
  radioactivity in nuclear fraction (P1): 34200
L1210 cells; final time-point
  radioactivity in cytosolic fraction: 4500 cpm
  radioactivity in pellet 2: 4500 cpm
  radioactivity in pellet 3: 800 cpm
  share of radioactivity in cytosolic fraction: 10%
  share of radioactivity in pellet 2: 10%
  share of radioactivity in pellet 3: 2%
A549 cells [6]; FIG. 3
  incubation time after which cytoplasmic, granular fluorescence was detected: 3 h
  incubation time at which nuclear accumulation was maximal: 24 h
A549 cells [6]; biotinylated MAL
  cytoplasmic staining: granular fluorescence evenly distributed throughout the cell
A549 cells [6]; biotinylated MAL, longer incubation times (time not given)
  cell nuclei stained brightly: About 15%
A549 cells [7]
  concentration at which HMW fragmentation was maximal: 1500 µg/mL
  concentration at which no chromosomal DNA was seen: 2.5 mg/mL
  oligonucleosomal DNA fragmentation: No oligonculeosomal fragmentation was detected
A549 cells [7]; 1.0 mg/ml
  time at which HMW fragmentation was first detected: 6 h
HRTEC cells [8]
  HMW DNA fragmentation: did not undergo HMW DNA fragmentation
